Reference: PMC11189301, “Structure of the human outer kinetochore KMN network complex” (Nature Structural & Molecular Biology, 2024)
Changes are numbered by the printed parent chain. Names may count otherwise.

T1: Knl1 residues 1870–2342 (human, UniProt Q8NG31 1870-2342)
T1 construct: Knl1, human, 2,342-residue protein, residues 1870-2342; coordinates traced R2097–H2342; Subunit within the KMN network cryo-EM sample; also called extended version of the Knl1 C terminus; source: High-5 insect cells, expressed and purified as part of KNL1C
T1 sequence (looked up): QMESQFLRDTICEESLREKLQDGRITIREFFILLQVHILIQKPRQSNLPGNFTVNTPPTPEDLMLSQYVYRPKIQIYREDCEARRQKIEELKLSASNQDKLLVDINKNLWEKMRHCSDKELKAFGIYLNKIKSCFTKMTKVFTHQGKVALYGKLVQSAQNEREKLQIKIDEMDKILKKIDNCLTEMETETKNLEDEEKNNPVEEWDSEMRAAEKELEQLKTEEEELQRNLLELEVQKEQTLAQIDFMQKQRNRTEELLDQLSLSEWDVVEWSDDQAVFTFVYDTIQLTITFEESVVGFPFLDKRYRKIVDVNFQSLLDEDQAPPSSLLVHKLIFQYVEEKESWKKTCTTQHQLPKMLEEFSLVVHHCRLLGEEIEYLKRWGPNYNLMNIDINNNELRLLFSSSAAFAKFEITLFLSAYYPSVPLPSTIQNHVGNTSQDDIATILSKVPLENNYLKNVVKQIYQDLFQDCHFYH

B1: Spc25 (natural protein, Homo sapiens, UniProt Q9HBM1 1-224, looked up)
chain: MVEDELALFDKSINEFWNKFKSTDTSCQMAGLRDTYKDSIKAFAEKLSVKLKEEERMVEMFLEYQNQISRQNKLIQEKKDNLLKLIAEVKGKKQELEVLTANIQDLKEEYSRKKETISTANKANAERLKRLQKSADLYKDRLGLEIRKIYGEKLQFIFTNIDPKNPESPFMFSLHLNEARDYEVSDSAPHLEGLAEFQENVRKTNNFSAFLANVRKAFTATVYN
notes: Spc25, subunit of human NDC80C; coordinates traced D80–N224; Subunit within the KMN network cryo-EM sample; source: High-5 insect cells, expressed and purified as part of NDC80C
B2: Mis12 (natural protein, Homo sapiens, UniProt Q9H081 1-205, looked up)
chain: MSVDPMTYEAQFFGFTPQTCMLRIYIAFQDYLFEVMQAVEQVILKKLDGIPDCDISPVQIRKCTEKFLCFMKGHFDNLFSKMEQLFLQLILRIPSNILLPEDKCKETPYSEEDFQHLQKEIEQLQEKYKTELCTKQALLAELEEQKIVQAKLKQTLTFFDELHNVGRDHGTSDFRESLVSLVQNSRKLQNIRDNVEKESKRLKIS
notes: Mis12, subunit of human MIS12C; Subunit within the KMN network cryo-EM sample; source: High-5 insect cells, expressed and purified as part of MIS12C
B3: Nsl1 (natural protein, Homo sapiens, UniProt Q96IY1 1-281, looked up)
chain: MAGSPELVVLDPPWDKELAAGTESQALVSATPREDFRVRCTSKRAVTEMLQLCGRFVQKLGDALPEEIREPALRDAQWTFESAVQENISINGQAWQEASDNCFMDSDIKVLEDQFDEIIVDIATKRKQYPRKILECVIKTIKAKQEILKQYHPVVHPLDLKYDPDPAPHMENLKCRGETVAKEISEAMKSLPALIEQGEGFSQVLRMQPVIHLQRIHQEVFSSCHRKPDAKPENFITQIETTPTETASRKTSDMVLKRKQTKDCPQRKWYPLRPKKINLDT
notes: Nsl1, subunit of human MIS12C; Subunit within the KMN network cryo-EM sample; source: High-5 insect cells, expressed and purified as part of MIS12C
B4: Dsn1 (natural protein, Homo sapiens, UniProt Q9H410 1-356, looked up)
chain: MTSVTRSEIIDEKGPVMSKTHDHQLESSLSPVEVFAKTSASLEMNQGVSEERIHLGSSPKKGGNCDLSHQERLQSKSLHLSPQEQSASYQDRRQSWRRASMKETNRRKSLHPIHQGITELSRSISVDLAESKRLGCLLLSSFQFSIQKLEPFLRDTKGFSLESFRAKASSLSEELKHFADGLETDGTLQKCFEDSNGKASDFSLEASVAEMKEYITKFSLERQTWDQLLLHYQQEAKEILSRGSTEAKITEVKVEPMTYLGSSQNEVLNTKPDYQKILQNQSKVFDCMELVMDELQGSVKQLQAFMDESTQCFQKVSVQLGKRSMQQLDPSPARKLLKLQLQNPPAIHGSGSGSCQ
notes: Dsn1, subunit of human MIS12C; Subunit within the KMN network cryo-EM sample; residues N-terminal to Arg92 are disordered; source: High-5 insect cells, expressed and purified as part of MIS12C
B5: ZWINT (natural protein, human, UniProt O95229 1-277, looked up)
chain: MEAAETEAEAAALEVLAEVAGILEPVGLQEEAELPAKILVEFVVDSQKKDKLLCSQLQVADFLQNILAQEDTAKGLDPLASEDTSRQKAIAAKEQWKELKATYREHVEAIKIGLTKALTQMEEAQRKRTQLREAFEQLQAKKQMAMEKRRAVQNQWQLQQEKHLQHLAEVSAEVRERKTGTQQELDRVFQKLGNLKQQAEQERDKLQRYQTFLQLLYTLQGKLLFPEAEAEAENLPDDKPQQPTRPQEQSTGDTMGRDPGVSFKAVGLQPAGDVNLP
notes: ZWINT, human; coordinates traced Q183–G221; Subunit within the KMN network cryo-EM sample; source: High-5 insect cells, expressed and purified as part of KNL1C
B6: Knl1^mut2: Knl1 (2131–2337 construct) with S2270R S2272W substitutions (protein)
chain: SLSEWDVVEWSDDQAVFTFVYDTIQLTITFEESVVGFPFLDKRYRKIVDVNFQSLLDEDQAPPSSLLVHKLIFQYVEEKESWKKTCTTQHQLPKMLEEFSLVVHHCRLLGEEIEYLKRWGPNYNLMNIDINNNELRLLFRSWAAFAKFEITLFLSAYYPSVPLPSTIQNHVGNTSQDDIATILSKVPLENNYLKNVVKQIYQDLFQD
modifications: left off: His6, N-terminal, cleaved
notes: Knl1 (2131–2337 construct) with S2270R S2272W substitutions
B7: Knl1^mut3: Knl1 (2131–2337 construct) with S2270R S2272W R2248A W2249A substitutions (protein, UniProt Q8NG31 2131-2337, looked up, variant S2270R S2272W R2248A W2249A)
chain: B6 chain with R118A, W119A
B8: Knl1^mut1: Knl1 (2131–2337 construct) with R2248D W2249A substitutions (protein, UniProt Q8NG31 2131-2337, looked up, variant R2248D W2249A)
chain: B6 chain with R118D, W119A, R140S, W142S

Experiments:
[1] = target: B3; test: cryo-EM structure; NDC80C, MIS12C and KNL1C mixed 1:1:1 and run on Superose 6 in 20 mM HEPES pH 8.0, 80 mM NaCl, 1 mM MgCl2, 1 mM TCEP; about 1 mg/ml on UltrAuFoil grids; 3.0 Å (MIS12C heads 3.8 Å); details: both partners purified
[2] = target: B4; test: as above; details: both partners purified
[3] = target: T1, Knl1 residues 1870–2342; test: as above; details: both partners purified
[4] = test system: MIS12C; test: SEC assessment of Knl1 mutants binding to MIS12C; parameters: species or system Homo sapiens; details: Knl1 (2131–2337) mutant + MIS12C at 4 µM each, 20 mM HEPES pH 7.8, 150 mM NaCl, 0.5 mM TCEP, Superose 6, at least two repeats
Protocol: Assessment of substitutions in the MIS12C–KNL1 interfaces
To test the effect of substitutions in the MIS12C–KNL1 interfaces, either wild-type MIS12C or MIS12C^Nsl1ΔC was mixed with either wild-type KNL1 or two mutants (KNL1^R2248D […] (KNL1^mut1), KNL1^S2270R S2272W (KNL1^mut2)) at 4 µM each in a buffer of 20 mM HEPES (pH 7.8), 150 mM NaCl and 0.5 mM TCEP, and 50 µl was loaded onto a Superose 6 size-exclusion column (Cytiva).
Extended Data Fig. 9 Biochemical validation of the MIS12C:Knl1 interface. a Coomassie blue-stained SDS-PAGE gels of the MIS12C:Knl1 interaction reconstitutions. MIS12C (WT) and MIS12C with Nsl1 truncated at the C-terminus (1–264 Nsl1 construct, MIS12C^Nsl1ΔC) were tested in their ability to bind either wild-type RWD domains of Knl1 (2131–2337 construct, labelled Knl1 for simplicity) or Knl1 mutants (R2248D/W2249S substitutions, Knl1^mut1, and S2270R/S2272W substitutions, Knl1^mut2, as well as S2270R/S2272W/R2248A/W2249S substitutions, Knl1^mut3). The binding experiments were repeated at least two independent times with identical results. The gels are aligned according to the fraction number of the protein sample eluted from the size exclusion column. b SEC elution chromatograms of all of the experiments described in (a). Source data

| binding result [1] | binding result [2] | binding result [3] | Molecule | MIS12C–Knl1 interaction by SEC, in words [4] | further results |
| --- | --- | --- | --- | --- | --- |
| binds | binds | – | B1 | – | – |
| binds | binds | – | B2 | – | – |
| – | binds | binds | B3 | – | – |
| – | – | binds | B4 | – | – |
| binds | – | binds | B5 | – | – |
| – | – | – | B6 | did not importantly disrupt MIS12C–Knl1 interactions | MIS12C–Knl1 interaction by SEC, in words ([4]; listed as Knl1mut2): does not appear to reduce interaction with MIS12C |
| – | – | – | B7 | little to no change in the interaction | – |
| – | – | – | B8 | did not importantly disrupt MIS12C–Knl1 interactions | – |
